# In publication PMC2872917:
# Key:
# [1] = biological target: Dam1 complex (S. cerevisiae) (UniProt P53267); assay: velocity sedimentation
# microtubules = microtubules (UniProt Q6B856); assay: bead-microtubule-binding assay
stoichiometry N [1],density of microtubule-attached beads (beads × mm^−2) (microtubules),Substance
2,–,Dam1 complex (from UniProt P53267 1-343; Q12248 1-94)
–,7800,Ndc80 complex (from UniProt P40460 1-691; P33895 1-451)
